From paper PMC12739106, “Phosphate deficiency reduces nodule formation through a phosphate starvation response-like protein in Phaseolus vulgaris”

Target: T1, PvPHR-L7 (formerly PvPHR1) (Phaseolus vulgaris, UniProt B4YEQ7 1-327)
T1 sequence: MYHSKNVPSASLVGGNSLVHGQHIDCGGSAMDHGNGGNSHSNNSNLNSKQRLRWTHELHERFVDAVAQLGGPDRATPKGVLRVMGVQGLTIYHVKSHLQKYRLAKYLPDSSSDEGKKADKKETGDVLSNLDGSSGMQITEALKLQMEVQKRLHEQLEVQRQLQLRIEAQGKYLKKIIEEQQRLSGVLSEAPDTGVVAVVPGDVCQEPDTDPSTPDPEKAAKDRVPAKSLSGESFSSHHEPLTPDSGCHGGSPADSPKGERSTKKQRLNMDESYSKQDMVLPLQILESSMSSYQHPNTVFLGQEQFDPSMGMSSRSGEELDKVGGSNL
Experiment: EMSA; poly(dI-dC); outcompeted by unlabeled same-sequence probe (50, 100 or 200 nM); LightShift Chemiluminescent EMSA kit, 1x binding buffer, 50 ng/ul poly(dI-dC), 1 unit protein, 0.1 'mmol' biotin probe, unlabeled competitor 5, 10, 20 'mmol' (legend: 50, 100, 200 nM); salt, pH and temperature not stated
Conditions: protein: recombinant; tags: His (pDEST17, N-terminal); chain copies: 2; 5' implied by name; blunt

Row | Binder | binding result
1 | PvTML promoter P1BS probe (dsDNA) DNA 1: GAAATTAATATAAAAAGCATATACTAAAATTAAGCATATGTT DNA 2: AACATATGCTTAATTTTAGTATATGCTTTTTATATTAATTTC | binds
2 | PvNIN promoter P1BS probe (dsDNA) DNA 1: CAATTTCATTCTATAGCATATGCAACATTTTAGACAAAATCA DNA 2: TGATTTTGTCTAAAATGTTGCATATGCTATAGAATGAAATTG | binds
